Laboratory results taken from US20260109776A1 (Amgen, published 2026).

T1: cynoCD40(1-193) (cynomolgus monkey, UniProt P25942 21-193 (human entry))
T1 construct: also called soluble cynomolgus monkey CD40
T1 chain: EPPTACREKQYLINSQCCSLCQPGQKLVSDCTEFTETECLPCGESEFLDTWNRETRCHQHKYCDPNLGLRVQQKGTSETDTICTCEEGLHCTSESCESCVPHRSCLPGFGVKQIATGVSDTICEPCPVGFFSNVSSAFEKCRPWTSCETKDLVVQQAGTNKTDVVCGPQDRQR

T2: cynoMSLN(296-598) (cynomolgus monkey)
T2 chain: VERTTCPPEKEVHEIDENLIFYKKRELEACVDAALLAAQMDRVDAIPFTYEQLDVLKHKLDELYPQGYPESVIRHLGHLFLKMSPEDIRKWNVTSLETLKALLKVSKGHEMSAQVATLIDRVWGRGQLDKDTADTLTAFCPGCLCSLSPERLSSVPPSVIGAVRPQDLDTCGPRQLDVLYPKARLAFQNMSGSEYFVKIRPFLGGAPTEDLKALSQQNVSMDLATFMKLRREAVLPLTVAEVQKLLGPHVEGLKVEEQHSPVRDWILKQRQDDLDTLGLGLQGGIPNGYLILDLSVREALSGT

T3: cynoCD40(1-193) (cynomolgus monkey, UniProt P25942 21-193 (human entry))
T3 construct: Soluble form used in Octet; also called cynomolgus monkey CD40
T3 chain: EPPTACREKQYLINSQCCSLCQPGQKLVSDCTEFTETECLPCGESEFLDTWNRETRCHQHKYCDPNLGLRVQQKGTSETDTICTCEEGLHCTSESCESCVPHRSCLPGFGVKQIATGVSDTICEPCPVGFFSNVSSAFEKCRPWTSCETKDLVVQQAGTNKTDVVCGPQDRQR


Assays:
huCD40(1-193) [1] = target: T4, huCD40(1-193) (human, UniProt P25942 21-193); experiment: Octet
T4 construct: also called soluble human CD40
Description: (§1) A panel of mesothelin×CD40 bispecific antibodies were generated in the IgG-scFv format (Table 13) and evaluated for binding to soluble forms of human and cynomolgus monkey CD40 and human and cynomolgus monkey mesothelin using the Octet assay (Table 14). Association rate (Kon), disassociation rate (Kdis), and equilibrium binding constant (KD) were calculated. […] These bispecific antibodies were next evaluated for their ability to induce mesothelin-dependent activation of human B cells. CHO cells expressing human mesothelin were seeded into a 96 well plate. The next day varying concentrations of the mesothelin×CD40 IgG-scFv antibodies were added to the wells along with purified human B cells and the plates were incubated for an additional 48 hours. Upregulation of CD86, a marker of CD40-mediated B cell activation, was quantified on B cells by flow cytometry.

cynoCD40(1-193) [2] = target: T1, cynoCD40(1-193); experiment: Octet
Description: as §1

huMSLN(296-598) [3] = target: T5, huMSLN(296-598) (human, UniProt Q13421 296-598); experiment: Octet
T5 construct: also called soluble human mesothelin
Description: as §1
T5 sequence (Q13421 other isoform, or with tags, fused parts or gaps): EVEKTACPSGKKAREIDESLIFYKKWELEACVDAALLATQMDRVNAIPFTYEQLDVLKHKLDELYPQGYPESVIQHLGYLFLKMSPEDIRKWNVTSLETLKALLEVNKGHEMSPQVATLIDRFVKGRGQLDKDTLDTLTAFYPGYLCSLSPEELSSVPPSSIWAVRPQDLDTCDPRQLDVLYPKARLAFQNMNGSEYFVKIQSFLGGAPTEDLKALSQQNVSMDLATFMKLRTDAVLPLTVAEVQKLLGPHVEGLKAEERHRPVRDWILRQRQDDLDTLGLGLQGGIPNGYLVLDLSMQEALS

cynoMSLN(296-598) = target: T2, cynoMSLN(296-598); experiment: Octet
Description: as §1

human CD40 = human CD40 (human, UniProt P25942 21-277); experiment: cell-based or functional assay
huCD40(1-193) [4] = target: T6, huCD40(1-193) (human, UniProt P25942 21-193); experiment: Octet, soluble antigen
T6 construct: Soluble form used in Octet; also called human CD40; soluble human CD40

cynoCD40(1-193) [5] = target: T3, cynoCD40(1-193); experiment: Octet, soluble antigen
huMSLN(296-598) [6] = target: huMSLN(296-598) (human, UniProt Q13421 296-598); experiment: Octet, soluble antigen
Target sequence in this assay (Q13421 other isoform, or with tags, fused parts or gaps): as above

[7] = target: human CD40 on purified human B cells (human, UniProt P25942 21-277); experiment: cell-based or functional assay

Binder	Kd (huCD40(1-193) [1])	koff (huCD40(1-193) [1])	kon (huCD40(1-193) [1])	Kd (cynoCD40(1-193) [2])	koff (cynoCD40(1-193) [2])	kon (cynoCD40(1-193) [2])	Kd (huMSLN(296-598) [3])	koff (huMSLN(296-598) [3])	kon (huMSLN(296-598) [3])	Kd (cynoMSLN(296-598))	koff (cynoMSLN(296-598))	kon (cynoMSLN(296-598))	EC50 (nM), CD86 upregulation on human B cells with huMSLN-CHO cells (human CD40)	Kd (huCD40(1-193) [4])	koff (huCD40(1-193) [4])	kon (huCD40(1-193) [4])	Kd (cynoCD40(1-193) [5])	koff (cynoCD40(1-193) [5])	kon (cynoCD40(1-193) [5])	Kd (huMSLN(296-598) [6])	other results
Anti-CD40xMSLN IgG-Fab molecule 5966-1 (bispecific antibody) chain 1: QVQLVESGGGLVKPGGSLRLSCAASGFTFSDYYMTWIRQAPGKGLEWISYISSSGSTIYYADSVKGRFTISRDNAKNSLYLQMNSLRAEDTAVYYCARDRNSHFDYWGQGTLVTVSS chain 2: DIQMTQSPSSVSASVGDRVTITCRASQGITRWLAWYQQKPGKAPKLLIYAASVLQSGVPSRFSGSGSGTDFTLTISSLQPEDFATYYCQQSNSFPRTFGQGTKVEIK chain 3: QVQLVESGGGLVKPGGSLRLSCAASEFTFSDYYMSWIRQAPGKGLEWVSYISRSGDTIYYADSVKGRFTISRDNAKNSLYLQMNGLRAEDTAVYYCARDLAAGATGGLDCWGQGTLVTVSS chain 4: SYELTQPPSVSVSPGQTASITCSGERLGNKYICWYQQKPGQSPVLVIYQDFKRPSGIPERFSGSNSGITATLTISGTQAMDEADYYCQAWDSRTVVFGGGTKLTVLG														0.7 nM	0.000403 s⁻¹	584000 M⁻¹ s⁻¹	0.9 nM	0.000358 s⁻¹	420000 M⁻¹ s⁻¹	0.2 nM	koff (huMSLN(296-598) [6]): 0.000176 s⁻¹; kon (huMSLN(296-598) [6]): 878000 M⁻¹ s⁻¹; EC50 (nM), CD86 upregulation on human B cells in the presence of CHO cells expressing human mesothelin [7]: 0.008 nM
Anti-CD40xMSLN IgG-Fab molecule 5991-1 (bispecific antibody) chain 1: EVQLLESGGGLVQPGGSLRLSCAASGFTFSRNAMSWVRQAPGKGLEWVSATGGSGISTYYADSVKGRFTISRDNSKNTLYLQMNSLRAEDTAVYYCARGYSNSWWYFDYWGQGTLVTVSS chain 2: QSALTQPASVSGSPGQSITISCTGTSSDVGNYNLVSWYQQHPGKAPKLMIFEVNQRPSGVSNRFSGSKSGTTASLTISGLQAADEADYFCCSYTTSSTYVIFGGGTKLTVLGQPKAAPSVTLFPPSSEELQANKATLVCLISDFYPGAVTVAWKADSSPVKAGVETTTPSKQSNNKYAASSYLSLTPEQWKSHRSYSCQVTHEGSTVEKTVAPTECS chain 3: QVQLVESGGGLVKPGGSLRLSCAASGFTFSDYYMSWIRQAPGKGLEWISYISSSESIIYYVDSVKGRFTISRDNAKNSLYLQMNSLRAEDTAVYYCARDVGSHFDYWGQGTLVTVSS chain 4: DIQMTQSPSSVSASVGDRVTITCRASQDISRWLAWYQQKPGKAPKLLISAASRLQSGVPSRFSGSGSGTDFTLTISSLQPEDFAIYYCQQAKSFPRTFGQGTKVEIKR														0.4 nM	0.000467 s⁻¹	1.08e+06 M⁻¹ s⁻¹	0.2 nM	0.000423 s⁻¹	1.86e+06 M⁻¹ s⁻¹	1.3 nM	koff (huMSLN(296-598) [6]): 0.000242 s⁻¹; kon (huMSLN(296-598) [6]): 181000 M⁻¹ s⁻¹; EC50 (nM), CD86 upregulation on human B cells in the presence of CHO cells expressing human mesothelin [7]: 0.004 nM

More lines, main results first:

Kd (huCD40(1-193) [1])	koff (huCD40(1-193) [1])	kon (huCD40(1-193) [1])	Kd (cynoCD40(1-193) [2])	koff (cynoCD40(1-193) [2])	kon (cynoCD40(1-193) [2])	Kd (huMSLN(296-598) [3])	koff (huMSLN(296-598) [3])	kon (huMSLN(296-598) [3])	Kd (cynoMSLN(296-598))	koff (cynoMSLN(296-598))	kon (cynoMSLN(296-598))	EC50 (nM), CD86 upregulation on human B cells with huMSLN-CHO cells (human CD40)	Kd (huCD40(1-193) [4])	koff (huCD40(1-193) [4])	kon (huCD40(1-193) [4])	Kd (cynoCD40(1-193) [5])	koff (cynoCD40(1-193) [5])	kon (cynoCD40(1-193) [5])	Kd (huMSLN(296-598) [6])	Binder	other results
3.5 nM	0.000431 s⁻¹	124000 M⁻¹ s⁻¹	4.7 nM	0.000466 s⁻¹	100000 M⁻¹ s⁻¹	0.2 nM	0.000135 s⁻¹	599000 M⁻¹ s⁻¹	5.5 nM	0.00105 s⁻¹	191000 M⁻¹ s⁻¹	0.00375 nM								6051-2 (bispecific antibody, IgG-scFv: IgG (CD40) 36F3, scFv (MSLN) 4H6) heavy: not shown light: EIVLTQSPGTLSLSPGERATLSCRASQSVSSNYLAWYQQKPGQAPRALIYAASNRAAGISDRFSGSGSGTDFTLTISRLEPEDFAVYFCQQYGSSPLTFGGGTKVEIKRTVAAPSVFIFPPSDEQLKSGTASVVCLLNNFYPREAKVQWKVDNALQSGNSQESVTEQDSKDSTYSLSSTLTLSKADYEKHKVYACEVTHQGLSSPVTKSFNRGEC	
1.2 nM	0.000407 s⁻¹	321000 M⁻¹ s⁻¹	0.9 nM	0.000407 s⁻¹	422000 M⁻¹ s⁻¹	0.1 nM	3.87e-05 s⁻¹	444000 M⁻¹ s⁻¹	4.3 nM	0.0012 s⁻¹	276000 M⁻¹ s⁻¹	0.00776 nM								6043-2 (bispecific antibody, IgG-scFv: IgG (CD40) 30A12, scFv (MSLN) 4H6) heavy: not shown light: QSALTQPASVSGSPGQSITISCTGTSSDVGNYNLVSWYQQHPGKAPKLMIFEVNQRPSGVSNRFSGSKSGTTASLTISGLQAADEADYFCCSYTTSSTYVIFGGGTKLTVLGQPKAAPSVTLFPPSSEELQANKATLVCLISDFYPGAVTVAWKADSSPVKAGVETTTPSKQSNNKYAASSYLSLTPEQWKSHRSYSCQVTHEGSTVEKTVAPTECS	
